# Reference: US6750057
# Key:
# MBP-XB3 = test system: T1, MBP-XB3
# T1 sequence: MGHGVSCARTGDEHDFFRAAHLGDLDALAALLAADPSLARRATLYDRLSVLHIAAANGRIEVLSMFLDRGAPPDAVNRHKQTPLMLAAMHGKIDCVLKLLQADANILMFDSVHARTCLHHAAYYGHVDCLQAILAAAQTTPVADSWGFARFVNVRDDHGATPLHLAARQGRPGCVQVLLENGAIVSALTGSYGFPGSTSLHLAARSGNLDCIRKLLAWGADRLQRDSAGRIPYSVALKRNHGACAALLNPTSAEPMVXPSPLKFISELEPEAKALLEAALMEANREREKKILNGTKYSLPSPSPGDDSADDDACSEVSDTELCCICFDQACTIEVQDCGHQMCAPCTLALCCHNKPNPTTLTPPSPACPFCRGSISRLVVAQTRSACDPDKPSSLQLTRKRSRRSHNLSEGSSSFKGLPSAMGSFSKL
substance,measurement,setting,value
GST-XA21,transphosphorylation assay with [gamma-32P]ATP,MBP-XB3,"GST-XA21 phosphorylated itself and MBP-XB3, but not MBP alone"
same,transphosphorylation assay with [gamma-32P]ATP,Native MBP [MBP: P0AEX9],"GST-XA21 phosphorylated itself and MBP-XB3, but not MBP alone"
